Measurements: publication PMC4295836 (Arteriosclerosis, thrombosis, and vascular biology, 2013)

T1: G-protein–coupled receptor kinase–interacting protein-1 (human (endogenous in HUVEC), UniProt Q9Y2X7 1-761)
T1 sequence (looked up): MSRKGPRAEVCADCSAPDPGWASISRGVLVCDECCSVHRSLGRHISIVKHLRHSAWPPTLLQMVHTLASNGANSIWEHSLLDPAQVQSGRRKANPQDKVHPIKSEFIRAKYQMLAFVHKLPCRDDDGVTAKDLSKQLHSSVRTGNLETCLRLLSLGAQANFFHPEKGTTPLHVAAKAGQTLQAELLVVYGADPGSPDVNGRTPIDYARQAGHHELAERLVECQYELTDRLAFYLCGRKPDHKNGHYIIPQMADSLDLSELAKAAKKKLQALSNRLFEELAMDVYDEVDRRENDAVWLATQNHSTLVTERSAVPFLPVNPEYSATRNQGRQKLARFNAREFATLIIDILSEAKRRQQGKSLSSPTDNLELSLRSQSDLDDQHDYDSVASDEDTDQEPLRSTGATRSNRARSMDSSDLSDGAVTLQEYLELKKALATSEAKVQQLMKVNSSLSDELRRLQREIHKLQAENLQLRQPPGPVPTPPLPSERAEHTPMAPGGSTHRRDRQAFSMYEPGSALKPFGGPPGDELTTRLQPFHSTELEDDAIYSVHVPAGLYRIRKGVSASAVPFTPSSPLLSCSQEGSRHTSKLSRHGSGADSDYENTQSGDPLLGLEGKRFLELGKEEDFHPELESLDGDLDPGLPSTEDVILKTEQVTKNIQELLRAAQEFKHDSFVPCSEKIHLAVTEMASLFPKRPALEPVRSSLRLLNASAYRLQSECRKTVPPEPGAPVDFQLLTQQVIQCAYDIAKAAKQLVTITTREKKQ


Target: T1, G-protein–coupled receptor …
Test: co-IP

Row | fold increase of association on VEGF (vs unstimulated) | fold increase of its level in the GIT1–cortactin complex on VEGF | Binder
1 | 6 fold |  | cortactin (natural protein, human (endogenous in HUVEC), UniProt Q14247 1-550, looked up) MWKASAGHAVSIAQDDAGADDWETDPDFVNDVSEKEQRWGAKTVQGSGHQEHINIHKLRENVFQEHQTLKEKELETGPKASHGYGGKFGVEQDRMDKSAVGHEYQSKLSKHCSQVDSVRGFGGKFGVQMDRVDQSAVGFEYQGKTEKHASQKDYSSGFGGKYGVQADRVDKSAVGFDYQGKTEKHESQRDYSKGFGGKYGIDKDKVDKSAVGFEYQGKTEKHESQKDYVKGFGGKFGVQTDRQDKCALGWDHQEKLQLHESQKDYKTGFGGKFGVQSERQDSAAVGFDYKEKLAKHESQQDYSKGFGGKYGVQKDRMDKNASTFEDVTQVSSAYQKTVPVEAVTSKTSNIRANFENLAKEKEQEDRRKAEAERAQRMAKERQEQEEARRKLEEQARAKTQTPPVSPAPQPTEERLPSSPVYEDAASFKAELSYRGPVSGTEPEPVYSMEAADYREASSQQGLAYATEAVYESAEAPGHYPAEDSTYDEYENDLGITAVALYDYQAAGDDEISFDPDDIITNIEMIDDGWWRGVCKGRYGLFPANYVELRQ
2 |  | 4 fold | phosphorylated S405-cortactin (natural protein, human (endogenous in HUVEC), UniProt Q14247 1-550, looked up, phosphoserine at 405) MWKASAGHAVSIAQDDAGADDWETDPDFVNDVSEKEQRWGAKTVQGSGHQEHINIHKLRENVFQEHQTLKEKELETGPKASHGYGGKFGVEQDRMDKSAVGHEYQSKLSKHCSQVDSVRGFGGKFGVQMDRVDQSAVGFEYQGKTEKHASQKDYSSGFGGKYGVQADRVDKSAVGFDYQGKTEKHESQRDYSKGFGGKYGIDKDKVDKSAVGFEYQGKTEKHESQKDYVKGFGGKFGVQTDRQDKCALGWDHQEKLQLHESQKDYKTGFGGKFGVQSERQDSAAVGFDYKEKLAKHESQQDYSKGFGGKYGVQKDRMDKNASTFEDVTQVSSAYQKTVPVEAVTSKTSNIRANFENLAKEKEQEDRRKAEAERAQRMAKERQEQEEARRKLEEQARAKTQTPPVSPAPQPTEERLPSSPVYEDAASFKAELSYRGPVSGTEPEPVYSMEAADYREASSQQGLAYATEAVYESAEAPGHYPAEDSTYDEYENDLGITAVALYDYQAAGDDEISFDPDDIITNIEMIDDGWWRGVCKGRYGLFPANYVELRQ
